5 molecules from patent publication US20210196796A1 (SYNTHEKINE, published 2021) can be followed below.

T1: orthogonal hCD122 receptor (hoRb), hCD122 with H133D and Y134F (human, UniProt P14784 27-550)
T1 sequence: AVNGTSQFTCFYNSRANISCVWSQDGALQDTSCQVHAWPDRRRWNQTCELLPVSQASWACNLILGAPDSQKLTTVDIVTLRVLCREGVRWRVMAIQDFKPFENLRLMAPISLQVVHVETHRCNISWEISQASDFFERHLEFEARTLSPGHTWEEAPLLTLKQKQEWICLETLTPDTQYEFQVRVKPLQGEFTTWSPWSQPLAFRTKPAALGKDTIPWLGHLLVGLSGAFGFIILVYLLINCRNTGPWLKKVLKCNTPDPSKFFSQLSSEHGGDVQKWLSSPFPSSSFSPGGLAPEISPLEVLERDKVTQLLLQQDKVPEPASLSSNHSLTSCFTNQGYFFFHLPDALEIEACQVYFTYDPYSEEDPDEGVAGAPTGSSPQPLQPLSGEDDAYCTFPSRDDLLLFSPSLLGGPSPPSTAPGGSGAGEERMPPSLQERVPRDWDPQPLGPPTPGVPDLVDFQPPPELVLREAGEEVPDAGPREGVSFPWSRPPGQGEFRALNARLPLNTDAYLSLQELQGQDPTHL

B1: SQVLIA (ligand)
chain: APTSSSTKKTQLQLSQLLVLLIAILNGINNYKNPKLTRMLTFKFYMPKKATELKHLQCLEEELKPLEEVLNLAQSKNFHLRPRDLISNINVIVLELKGSETTFMCEYADETATIVEFLNRWITFCQSIISTLT
B2: SQVLHA (ligand)
chain: B1 chain with I22H
B3: SQVLRA (ligand)
chain: B1 chain with I22R
B4: SQVLYA, E116G (ligand)
chain: B1 chain with I22Y
B5: SQVLNA (ligand)
chain: B1 chain with I22N

Positions count from the first letter of the chain named. Numbers in names are those of the source.
Wherever Relative Proliferation Fold Change 3F8 1:10 is given: reference of the scale not given here.
Wherever Relative Proliferation Fold Change 3F8 1:2 is given: reference of the scale not given here.
Wherever Relative Proliferation Fold Change 3F8 1:50 is given: reference of the scale not given here.
Wherever Relative Proliferation Fold Change NKL 1:10 is given: reference of the scale not given here.
Wherever Relative Proliferation Fold Change NKL 1:2 is given: reference of the scale not given here.
Wherever Relative Proliferation Fold Change NKL 1:50 is given: reference of the scale not given here.

The target in the first test is T1, orthogonal hCD122 receptor (hoRb), …. The test can be described thus: cell-based or functional assay.
For B1, the “NKL Ortho Proliferation Signal 1:2” value came to 13000, the “NKL Ortho Proliferation Signal 1:10” value worked out at 10700, the “NKL Ortho Proliferation Signal 1:50” value was 6780 and the “Relative Proliferation Fold Change NKL 1:2” value amounted to 1.11 fold. In addition, the “Relative Proliferation Fold Change NKL 1:10” value came out at 0.78 fold and the “Relative Proliferation Fold Change NKL 1:50” value amounted to 0.53 fold.
For B2, the “NKL Ortho Proliferation Signal 1:2” value amounted to 53000, the “NKL Ortho Proliferation Signal 1:10” value was found to be 26000, the “NKL Ortho Proliferation Signal 1:50” value is 13300 and the “Relative Proliferation Fold Change NKL 1:2” value was found to be 3.46 fold. The “Relative Proliferation Fold Change NKL 1:10” value was 1.63 fold and the “Relative Proliferation Fold Change NKL 1:50” value amounted to 0.87 fold.
Take B3: the “NKL Ortho Proliferation Signal 1:2” value came out at 60800, the “NKL Ortho Proliferation Signal 1:10” value turned out to be 68400, the “NKL Ortho Proliferation Signal 1:50” value turned out to be 34300 and the “Relative Proliferation Fold Change NKL 1:2” value came to 4.33 fold. The “Relative Proliferation Fold Change NKL 1:10” value turned out to be 4.06 fold and the “Relative Proliferation Fold Change NKL 1:50” value stood at 2.28 fold.
On to B4, for which the “NKL Ortho Proliferation Signal 1:2” value is 13200, the “NKL Ortho Proliferation Signal 1:10” value turned out to be 11600, the “NKL Ortho Proliferation Signal 1:50” value was 8390 and the “Relative Proliferation Fold Change NKL 1:2” value was determined as 1.21 fold. Besides, the “Relative Proliferation Fold Change NKL 1:10” value came to 0.83 fold and the “Relative Proliferation Fold Change NKL 1:50” value was determined as 0.63 fold.
As for B5, the “NKL Ortho Proliferation Signal 1:2” value came to 50600, the “NKL Ortho Proliferation Signal 1:10” value amounted to 36500, the “NKL Ortho Proliferation Signal 1:50” value was determined as 17300 and the “Relative Proliferation Fold Change NKL 1:2” value worked out at 4.55 fold. Besides, the “Relative Proliferation Fold Change NKL 1:10” value stood at 3 fold and the “Relative Proliferation Fold Change NKL 1:50” value turned out to be 1.4 fold.

The target is the same in the next test. The test can be described thus: cell-based or functional assay. This is another data set of the same source.
Take B1: the “3F8 Ortho Proliferation Signal 1:2” value was found to be 18600 cts/min, the “3F8 Ortho Proliferation Signal 1:10” value is 10500 cts/min, the “3F8 Ortho Proliferation Signal 1:50” value came to 3500 cts/min and the “Relative Proliferation Fold Change 3F8 1:2” value worked out at 0.45 fold. The “Relative Proliferation Fold Change 3F8 1:10” value came to 1.2 fold and the “Relative Proliferation Fold Change 3F8 1:50” value was 0.77 fold.
In the case of B2, the “3F8 Ortho Proliferation Signal 1:2” value was determined as 32600 cts/min, the “3F8 Ortho Proliferation Signal 1:10” value is 35100 cts/min, the “3F8 Ortho Proliferation Signal 1:50” value was 19100 cts/min and the “Relative Proliferation Fold Change 3F8 1:2” value was 80.2 fold. The “Relative Proliferation Fold Change 3F8 1:10” value was 56.4 fold and the “Relative Proliferation Fold Change 3F8 1:50” value worked out at 25.8 fold.
For the molecule B3, the “3F8 Ortho Proliferation Signal 1:2” value was 33400 cts/min, the “3F8 Ortho Proliferation Signal 1:10” value stood at 32300 cts/min, the “3F8 Ortho Proliferation Signal 1:50” value came out at 19600 cts/min and the “Relative Proliferation Fold Change 3F8 1:2” value was 43 fold. Also, the “Relative Proliferation Fold Change 3F8 1:10” value was 38.8 fold and the “Relative Proliferation Fold Change 3F8 1:50” value worked out at 30.2 fold.
For the molecule B4, the “3F8 Ortho Proliferation Signal 1:2” value was 12500 cts/min, the “3F8 Ortho Proliferation Signal 1:10” value is 8030 cts/min, the “3F8 Ortho Proliferation Signal 1:50” value came out at 2510 cts/min and the “Relative Proliferation Fold Change 3F8 1:2” value amounted to 29.7 fold. Besides, the “Relative Proliferation Fold Change 3F8 1:10” value is 9.79 fold and the “Relative Proliferation Fold Change 3F8 1:50” value was found to be 2.73 fold.
As to B5, the “3F8 Ortho Proliferation Signal 1:2” value was 32600 cts/min, the “3F8 Ortho Proliferation Signal 1:10” value is 35100 cts/min, the “3F8 Ortho Proliferation Signal 1:50” value came out at 19100 cts/min and the “Relative Proliferation Fold Change 3F8 1:2” value is 80.2 fold. Further, the “Relative Proliferation Fold Change 3F8 1:10” value amounted to 56.4 fold and the “Relative Proliferation Fold Change 3F8 1:50” value was 25.8 fold.
